# In the DeepSol protein solubility set:
# Test: soluble on expression in E. coli; label from the status in PepcDB or PDB records
row,Sequence,soluble on expression in E. coli
1,MSLKQYKAYLIDLDGTMYMGTDEIDGAKQFIDYLNVKGIPHLYVTNNSTKTPEQVTEKLREMHIDAKPEEVVTSALATADYISEQSPGASVYMLGGSGLNTALTEAGLVIKNDEHVDYVVIGLDEQVTYEKLAIATLGVRNGATFISTNPDVSIPKERGLLPGNGAITSVVSVSTGVSPQFIGKPEPIIMVKALEILGLDKSEVAMVGDLYDTDIMSGINVGMDTIHVQTGVSTLEDVQNKNVPPTYSFKDLNEAIAELEKEGHHHHHH,soluble
2,MSLKRAIIIGATSGIGKEVAQRLLSEGWQIGIAGRRQSALEEFRQIAPEQIKIQSLDVTQEYSAGKLDALIHQLGGMDLFLLSSGIGFQNMELNMEIELNTARTNVEGFTRMVDTAFSYFRNNGGGHLAVISSIAGTKGLGVAPAYSATKRFQNTYIDALEQLSHLQKLDIHFTDIRPGFVATDLLNDGKHYPMLMKTDQVGRDIVRALHRKEGHHHHHH,not soluble
3,MSLKRVVIIGMGFGGIRAARVLAGKGLDVVLVDRNNYHLFQPLLYQVGTAGLEQESIAYPVRAMAREWRGTRFHLAEVAGVDFPAREVVTGNGRIPYDYLIIGAGSVTNYFGLESVERHAFDLKELVDGERLRNHILTAFERAVVEPDPAKRRALMTFVIVGGGPTGVEFAGALMELVRYVLAKDYPELSVQAARVVLVEAFDRLLAAMPQELQVYTLEKLRAMGVEVLFNARVEGHHHHHH,not soluble
4,MSLKSGCSARQVCAGNTHFAVVTVEKELYTWVNMQGGTKLHGQLGHGDKASYRQPKHVEKLQGKAIHQVSCGDDFTVCVTDEGQLYAFGSDYYGCMGVDKVAGPEVLEPMQLNFFLSNPVEQVSCGDNHVVVLTRNKEVYSWGCGEYGRLGLDSEEDYYTPQKVDVPKALIIVAVQCGCDGTFLLTQSGKVLACGLNEFNKLGLNQCMSGIINHEAYHEVPYTTSFTLAKQLSFYKIRTIAPGKTHTAAIDERGRLLTFGCNKCGQLGVGNYKKRLGINLLGGPLGGKQVIRVSCGDEFTIAATDDNHIFAWGNGGNGRLAMTPTERPHGSDICTSWPRPIFGSLHHVPDLSCRGWHTILIVEKVLNSKTIRSNSSGLSIGTVFQSSSEGHHHHHH,not soluble
5,MSLKSVASGKELAGLRVMVIDDSKTIRRTAETLLKREGCEVVTAIDGFEALAKIADQKSQIIFVDIMMPRLDGYQTCALIKNNNLFKSTPVIMLSSKDGLFDKARGRVVGSEQYLTKPFTREELLSAIRTYVNPLKLAEGHHHHHH,not soluble
6,MSLKTGTTLEKLAQVKTVAFDKTGTITQGKLVVDQVVPQGSQSADRLLQLAASAEQHSSHVLAQSLVAANRLPLLTATNVTETTAQGVVATINGQQVRAGKAAFVTSESITKPDQTAVYVAVDDVYQGYVSFNDRVRPEAATTMTRLRQAGVAHLMMISGDRQPIAEQIAQEVGLDQVHAECLPAGKIAVLDQLAANQRPVAMVGDGINDAPSLATADVGIAMGAHGATAASESADAVVLKDDLTRVSTARVIAQDTMRVARQSEGHHHHHH,soluble
7,MSLKTIAIDFETANEERGSACSVGLAWIEDGQIVRVEERLIRPRDMRFSPFNIAVHGIRPRDVEDAPEFPEVMEEFIDDFHGATMIAHNAAFDFSVMRASFDKYRLSYPDLSYLCSVKIARHVWPHLVSHKLNVIAHHLQLRFVHHNAAEDAVVCAAASIAAARALGVAHIRDLPEKIGEGHHHHHH,not soluble
8,MSLKTIVVKFGTSTLTQGSPKLNSPHMMEIVRQIAQLHNDGFRIVIVTSGAIAAGRHYLNHPQLPPTIASKQLLAAVGQSQLIQAWEKLFAIYDIHIGQLLLTRADIEDRERFLNARDTLYALLDNHIIPVINENDAVATAEIKVGDNDNLSALVAILVQAEQLYLLTDQQGLFDSDPRKNPEAKLIPVVEQITDHIRSIAGGSGTNLGTGGMMTKIIAADVATRSGIETIIAPGNRPNVIADLAYEQNIGTKFIAHQSDRLESRKQWLFAAPSAGIITIDNGAQNAILEQNKSLLPAGIINVEGRFSRGEVVKIRTQSGKDIALGMPRYNSDALQLIKGRKSADIENVLGYEYGAVAMHRDDMIILSEGHHHHHH,soluble
9,MSLKTLIKNVHILTMDEQFSEIKAGYLVIEEDTIVELAPMTTLDEKRMAANQVIDGQNGILMPGMINTHTHVGMIPFRSLGDDVPDRLRRFLFPLEQFMTKELVGCSSDYAIAEMLLSGITSFCDMYYFEDEIAKSCEKMSVRALLGETIIDMPTCDSPEPSGGLFYAETFIRKWQGHPLITPMLAPHAPNTNSPEVLAKIIELSRQYQVPVTMHVAEMTYEMAEFEKAYQKTPIAFLEELGYLSEPFILAHCILATDEDLASLAATNGKARVAHCIGANTKSAKGVAPIKQMLDQGIIVGLGTDGPSSGNTLDLFTQMRMVANFHKTAHQDRSLFPAKEIVYLATMGGAKTLGLAEQVGSLEVDKKADITLIETQSVNMFPIFDAYSALVYSANASNVEAVWVNGQQLVANKELQQANLKEIKEKLYQAMNTFVKEAKKRAALEGHHHHHH,soluble
10,MSLKTVEDNRTSLTDQVLKGTLIQDKLYESNKYYPIYGSSELGKDDPFNPAIALNKHNANKKAFLLGAGGSTDLINAIELASQYDKLKGKKLTFIISPQWFTNHGLTNQNFDARMSQTQINQMFQQKNMSTELKRRYAQRLLQFPHVHNKEYLKSYAKNPKETKDSYISGFKENQLIKIEAIKSLFAMDKSPLEHVKPATKPDASWDEMKQKAVEIGKADTTSNKFGIRDQYWKLIQESKRKVRRDYEFNVNSPEFQDLELLVKTMRAAGADVQYVSIPSNGVWYDHIGIDKERRQAVYKKIHSTVVDNGGKIYDMTDKDYEKYVISDAVHIGWKGWVYMDEQIAKHMKGEPQPEVDKPKNEGHHHHHH,soluble
11,MSLKTVFKPTLLAVLVAASAPVLAHSLIADTKAPSPTTKAFAAEQRNTLPFADQEDFKLVEKGLIAQQKDLEIKDANGKVVWELGNYRFLLDGLDYDSIHPSLQRQAQLNMHHGLYKVTDRIYQVRGYDLANITFVKGDTGWIVFDPLTVPATAKAALDFVNQELGERPVKAVVYSHAHADHFGGVKGIVSQEQVDRGEVPIIAPKGFLNHAVAENVLAGNAMSRRTTYQYGNVLPKGATGQVDAAIGKNVAQGEVSLIAPTKVISEQTETVVIDGVTMEFQNTPGTESPAEMNTYFPQFKALWMAENTVGGLHNVYTLRGAEVRDAKAWSKYINESIHMYAKEADVMFASHTWPRWGNDNINHFLRKQRDMYGYIHDQALRLANHGVTINEIQDEFHVPDVLAHEWYNRGYHGSYHRNAKAVINKYLGYFDMNPATLRPLAPTDAAPKYVAAMGGMDNVIKLGKEAFDKGEFRWCAEIVDKAVFAEPSNKQARYLQADCLEQLGYQSESAGERNTYLMGAYELRNGVPKVSATKTAGADTVVAMDTELFLDYLGVRLNGDKAAGIDYTINFVLPDVNEKFLVELENAHLNNLKGIQSENPDMTLTLNRAQLNQVLMGKTTIQQLAKEGKAKIEGNAQALTDIAGMLDNFEFWFNIIEPKTKEGGSHHHHHH,soluble
12,MSLKVGECMTKFNWHESAEKKWDSSAEFWNQNSQEMWDSGSRSTIIPFFEQYVKKEAEVLDVGCGDGYGTYKLSRTGYKAVGVDISEVMIQKGKERGEGPDLSFIKGDLSSLPFENEQFEAIMAINSLEWTEEPLRALNEIKRVLKSDGYACIAILGPTAKPRENSYPRLYGKDVVCNTMMPWEFEQLVKEQGFKVVDGIGVYKRGVNEKMLGQLSTDLQQSLTFLWVFMLKRHKEMKEFLGGKEGHHHHHH,soluble
13,MSLKVIICGAGQVGYGIAEQLSREDNEVSVIDTAAPLITAITETLDVRGYVGHGAHPDMLAKAGADQADMIIAVTLHDEINIVACEVAHALFSVPTKIARIRDQSYMKPEYADLFSRENMSIDVTISPEVEVGKMVLRRIAFPGATDVVRFAEDTIYMLAIECMEDCPVINTPLQQLSSLFPDLIATVVGVYRDGILKVAHSSEQLRVGDLAYVICQRQHARRTLSLFGHEEQEGHHHHHH,not soluble
14,MSLKVLLLDVDGTLLSFETHKVSQSSIDALKKVHDSGIKIVIATGRAASDLHEIDAVPYDGVIALNGAECVLRDGSVIRKVAIPAQDFRKSMELAREFDFAVALELNEGVFVNRLTPTVEQIAGIVEHPVPPVVDIEEMFERKECCQLCFYFDEEAEQKVMPLLSGLSATRWHPLFADVNVAGTSKATGLSLFADYYRVKVSEIMACGDGGNDIPMLKAAGIGVAMGNASEKVQSVADFVTDTVDNSGLYKALKHFGVIEGHHHHHH,soluble
15,MSLKWFNTLSHNRWLEQETDRIFNFGKNAVVPTGFGWLGNKGQIKEEMGTHLWITARMLHVYSVAASMGRPGAYDLVDHGIKAMNGALRDKKYGGWYACVNDQGVVDASKQGYQHFFALLGAASAVTTGHPEARKLLDYTIEVIEKYFWSEEEQMCLESWDEAFSQTEDYRGGNANMHAVEAFLIVYDVTHDKKWLDRALRIASVIIHDVARNGDYRVNEHFDSQWNPIRDYNKDNPAHRFRAYGGTPGHWIEWGRLMLHLHAALEARFETPPAWLLEDAKGLFHATIRDAWAPDGADGFVYSVDWDGKPIVRERVRWPIVEAMGTAYALYTLTDDSQYEEWYQKWWDYCIKYLMDYENGSWWQELDADNKVTTKVWDGKQDIYHLLHCLVIPRLPLAPGLAPAVAAGLLDINAKEGGSHHHHHH,soluble
16,MSLKWIDSHIHVDQYKDEEKSRLLKDVENSKEIQGLIAVSMNYQSSKEILSLAKRYSFVHPAVGFHPEQPIHKEECEKIYKLIEDHVEDIVAIGEVGLPYYLRKEDEHIAINSYISVLQRFVELASKYDLPIVLHAVYEDADVVCDLLEKHKVSRAHFHWFKGSETTMERMMRNGYYISITPDVLHKEKIRKIVSYYPLEYMMVETDGPWGFQEGVMTHPGMIREVLKEISVIKNVAVDKVAETIYENTIQFYLKGEGHHHHHH,soluble
17,MSLLGAAESTLEFYDLSHPWGHGAPAWPYFEDVQIERLHGMAKSRVLTQKITTVMHSGTHIDAPAHVVEGTPFLDEIPLSAFFGTGVVVSIPKGKWGMVTAEDLQNATPDIRPGDIVVVNTGWHHKYADSAEYYAYSPGFDKKAGEWFAAKGVKAVGTDTQALDHPLATAIAPHSPAEAQGGLLPWAVREYEAQTGRKVLDDFPDWEPCHRAILSQGIYGFENVGGDLDKVTGKRVTFAAFPWRWVGGDGCIVRLVAIVDPTGSYRIETGKAVEGHHHHHH,soluble
18,MSLLIKNGTIVNDDAIFKSDVLVLDGRIVEIAPSIQPTPGLEVVDATDRLVIPGGIDPHTHMQLPFMGEIAKDDFHRGTEAAVAGGTTMIIDFVIPTKGESLLVAYDRWRGWADPKVVCDYGLSMAITSWGPEIAKEMEIVTGAEYGINSFKFFLAYAGVFMVRDEEFYQGMIQCAKLRALARVHAENGSVIAERCEHLLSSGITGPEGHTQSRPEELEAEATFRACTMASQANCPLYVVHVMSKGAAAAIAHHRKKGAVVFGEPIAAGLATDGSHYYNEDWLHAARYVMSPPLSRDPSTPSALMKLLAAGELHLTATDNCTFDCQQKSLGKDDFTKIPNGVNGVEDRMSVVWDKGVHAGIIDPMRFVAVTSTMAAKIFNCYPQKGRIAVGSDADIVIWNANATRTISKDTHHHAIDFNIFEGMQVHGVPEITISRGRTVWANGQLKTVQGSGQFIPLAPDSQIVFSAVDNRKKAMEPVKIDRIPYEPSALQTPDANANIVVKAPVRAAIPPGGASSIQF,not soluble
19,MSLLKVREMEREDVERVYEINRESFTTDAWSRFSFEKDFENKFSRRFVLEEDGKVVGYVIFWVVKEEATIMTFAIAPGYRGKGYGEKLLREAISRLGDKVKRVVLDVRKSNLRAINLYKKLGFKVVTERKGYYSDGENALLMELKISRPSEAELSREGHHHHHH,soluble
